The results in this text go back to patent US20130224191A1, “NOTUM PROTEIN MODULATORS AND METHODS OF USE” (priority 2010, published 2013).

The target of this experiment is T1, Notum being secreted from the 293-Notum cells (Homo sapiens, UniProt Q6P988).
T1 construct: expressed in transfected cells; host or cells: 293T (293.Notum)
T1 sequence (Q6P988 20-496): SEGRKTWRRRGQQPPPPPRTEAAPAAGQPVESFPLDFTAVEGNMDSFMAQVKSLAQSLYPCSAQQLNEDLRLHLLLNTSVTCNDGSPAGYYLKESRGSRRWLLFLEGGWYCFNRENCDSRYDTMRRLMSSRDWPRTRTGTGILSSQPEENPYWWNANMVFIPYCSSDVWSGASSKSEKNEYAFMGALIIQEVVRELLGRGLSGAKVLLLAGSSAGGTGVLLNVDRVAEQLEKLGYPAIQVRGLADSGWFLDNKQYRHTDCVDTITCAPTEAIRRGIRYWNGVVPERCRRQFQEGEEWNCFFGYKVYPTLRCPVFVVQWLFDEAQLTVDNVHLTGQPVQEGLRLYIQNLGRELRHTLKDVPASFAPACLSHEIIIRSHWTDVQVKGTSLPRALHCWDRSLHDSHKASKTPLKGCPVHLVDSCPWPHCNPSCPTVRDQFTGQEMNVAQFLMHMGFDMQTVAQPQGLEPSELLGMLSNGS
Put plainly: Co-culture Wnt3A assay, effector cells with 293.TCF reporter cells. As to conditions: antibody 10 μg/mL. It is filed as cell-based. As for the experimental part:
In order to more closely model the behavior of Notum producing cells in vivo, co-culture experiments were performed in which effector cells, either parental 293T cells (293.null) or 293T cells expressing soluble Notum (i.e., 293.Notum cells), were mixed in varying ratios with reporter 293.TCF cells. Notum activity or inhibition in the presence of antibodies was then determined from these cell mixtures after treatment with Wnt3A CM. Briefly, three different ratios of effector to reporter cells were tested: 2:1, 1:[…], corresponding to 5×10^4: 2.5×10^4, 2.5×10^4: 2.5×10^4 cells, or 2.5×10^41.0×10^4 cells per well of a 96-well plate by mixing the cells in 50 μL serum free medium per well prior to plating.
For the antibody antagonism experiments, the mixture of cells was plated into wells containing 25 μL of DMEM+0.2% FBS and antibody at a final concentration of 10 μg/mL. Twenty-three hours after plating, 25 μL of Wnt3A or control L-cell CM were added to each well. Eighteen hours after addition of CM, 100 μL of One-Glo solution (ProMega Corp.) was added to each well. The contents of each well were then mixed thoroughly to lyse the cells, 100 μL of lysate transferred to black 96-well plates, and the luminescence read after 5 minutes.

B1: SC2.D2.2 (antibody, V domains shown)
VH: DVQLVESGGGLVQPGGSRKISCAASGFTFSSYGMHWVRQAPEKGLEWVAYISSSTVTTYYADTVKGRFTISRDNANNTLFLQMTSLRSEDTAMYYCSRQNWDGGYFDVWGAGTTVTVSS
VL: DIVLTQSLASLAVSLGQRATISCRASKSVSSSGYSYMHWYQQKPGQPPKLLIYLASNLESGVPARFSGSGSGTDFTLNIHPVEEEDAATYYCQHSRALPLTFGAGTKLELKR
notes: also called murine SC2.D2.2
As for B1, the Wnt3A-induced luciferase result (co-cultures of 293.Notum and 293.TCF cells) is on record as “increases the amount of Wnt3A-induced luciferase”. Also, the “induction of luciferase activity by Wnt3A CM” value (co-cultures of 293.null and 293.TCF cells) is reported as “little effect”.
